Earlier results on one substance are cited in PMC3430373.

For this data set, the target named is S10:NusB complex (Escherichia coli) (UniProt C4ZUH6). Nature of the data set: NMR.

The term Kd denotes the free concentration of one partner at which half of the binding sites on the other are occupied at equilibrium, for simple one-to-one binding. Regarding NusG CTD (from UniProt P0AFG0), the dissociation constant Kd is 50 µM.
